Assay results published in the supplement of paper PMC9112550, “Optimization of the antimicrobial peptide Bac7 by deep mutational scanning” (BMC Biology, 2022).

Tested on: Escherichia coli TOP10
Assay: shrunken log2 fold change of peptide-encoding DNA abundance (4.5 h post-induction vs induction); higher = less antimicrobial activity (less host growth inhibition)
Conditions: time post-induction: 4.5 h; library: site-saturation at positions 5, 18, 19, 20
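Also: peptides expressed intracellularly from a pBAD plasmid library in pooled LB shake-flask culture, induced with 0.3% L-arabinose, DNA abundance read by NGS, three biological replicates, DESeq2 with apeglm shrinkage.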

Row | Sequence | shrunken log2 fold change
1 | RRIRYRPPRLPRPRPRPYWEPRP | -0.0328
2 | RRIRIRPPRLPRPRPRPTANPRP | -0.149
3 | RRIRMRPPRLPRPRPRPRHIPRP | 0.0163
4 | RRIRFRPPRLPRPRPRPWAWPRP | 0.174
5 | RRIRLRPPRLPRPRPRPKYPPRP | 0.0464
6 | RRIRRRPPRLPRPRPRPPSWPRP | 0.295
7 | RRIRGRPPRLPRPRPRPKASPRP | 0.234
8 | RRIRERPPRLPRPRPRPDKDPRP | -0.433
9 | RRIRMRPPRLPRPRPRPGSYPRP | 0.124
10 | RRIRVRPPRLPRPRPRPYNHPRP | -0.343
11 | RRIRDRPPRLPRPRPRPENVPRP | 0.218
12 | RRIRPRPPRLPRPRPRPCRAPRP | 0.0858
13 | RRIRVRPPRLPRPRPRPPVFPRP | 0.00719
14 | RRIRYRPPRLPRPRPRPCFQPRP | -0.267
15 | RRIRYRPPRLPRPRPRPLGNPRP | 0.0523
16 | RRIRSRPPRLPRPRPRPCNWPRP | -0.128
17 | RRIRWRPPRLPRPRPRPELIPRP | 1.56
18 | RRIRKRPPRLPRPRPRPSIQPRP | -0.149
19 | RRIRTRPPRLPRPRPRPILPPRP | -0.066
20 | RRIRDRPPRLPRPRPRPKMGPRP | -0.0622
21 | RRIRLRPPRLPRPRPRPTGLPRP | 0.177
22 | RRIRMRPPRLPRPRPRPITDPRP | -0.667
23 | RRIRLRPPRLPRPRPRPNYCPRP | -0.31
24 | RRIRSRPPRLPRPRPRPCGTPRP | 0.202
25 | RRIRVRPPRLPRPRPRPSPRPRP | 0.415

Row | Sequence | shrunken log2 fold change
26 | RRIRPRPPRLPRPRPRPTMTPRP | 0.0633
27 | RRIRDRPPRLPRPRPRPHGHPRP | 0.0317
28 | RRIRARPPRLPRPRPRPCRRPRP | -0.085
29 | RRIRERPPRLPRPRPRPCWGPRP | 0.0218
30 | RRIRKRPPRLPRPRPRPHAEPRP | 0.126
31 | RRIRFRPPRLPRPRPRPQGLPRP | -0.462
32 | RRIRGRPPRLPRPRPRPEWGPRP | 0.544
33 | RRIRTRPPRLPRPRPRPTCVPRP | -0.308
34 | RRIRPRPPRLPRPRPRPWINPRP | -0.719
35 | RRIRDRPPRLPRPRPRPMQTPRP | 0.0424
36 | RRIRSRPPRLPRPRPRPYPHPRP | -0.227
37 | RRIRTRPPRLPRPRPRPWWIPRP | -0.869
38 | RRIRGRPPRLPRPRPRPRQGPRP | 0.654
39 | RRIRSRPPRLPRPRPRPLPFPRP | -0.588
40 | RRIRFRPPRLPRPRPRPPLVPRP | 0.23
41 | RRIRLRPPRLPRPRPRPKIVPRP | -0.142
42 | RRIRERPPRLPRPRPRPFKLPRP | -0.42
43 | RRIRYRPPRLPRPRPRPRCYPRP | 0.0145
44 | RRIRKRPPRLPRPRPRPVDSPRP | 0.134
45 | RRIRNRPPRLPRPRPRPRLKPRP | -0.00493
46 | RRIRRRPPRLPRPRPRPHLDPRP | 0.176
47 | RRIRKRPPRLPRPRPRPAINPRP | 0.126
48 | RRIRSRPPRLPRPRPRPKKFPRP | -0.222
49 | RRIRGRPPRLPRPRPRPRQYPRP | -0.0954
50 | RRIRSRPPRLPRPRPRPQKPPRP | -0.0986

Row | Sequence | shrunken log2 fold change
51 | RRIRARPPRLPRPRPRPVIMPRP | -0.42
52 | RRIRIRPPRLPRPRPRPEWPPRP | 0.0836
53 | RRIRFRPPRLPRPRPRPSCNPRP | -0.714
54 | RRIRYRPPRLPRPRPRPIKQPRP | -0.0386
55 | RRIRWRPPRLPRPRPRPWIRPRP | -0.124
56 | RRIRFRPPRLPRPRPRPWNQPRP | 0.0676
57 | RRIRGRPPRLPRPRPRPTHEPRP | 1.34
58 | RRIRIRPPRLPRPRPRPWYMPRP | -0.775
59 | RRIRYRPPRLPRPRPRPSCNPRP | -1.43
60 | RRIRLRPPRLPRPRPRPMTHPRP | -0.22
61 | RRIRHRPPRLPRPRPRPQEPPRP | -0.136
62 | RRIRCRPPRLPRPRPRPIEGPRP | 0.119
63 | RRIRVRPPRLPRPRPRPPNQPRP | 0.184
64 | RRIRERPPRLPRPRPRPHTGPRP | -1.1
65 | RRIRYRPPRLPRPRPRPRCMPRP | -0.425
66 | RRIRWRPPRLPRPRPRPVMKPRP | 0.12
67 | RRIRFRPPRLPRPRPRPWPIPRP | -0.0205
68 | RRIRNRPPRLPRPRPRPWSDPRP | -0.0436
69 | RRIRWRPPRLPRPRPRPVHSPRP | -0.37
70 | RRIRMRPPRLPRPRPRPVKYPRP | 0.0631
71 | RRIRGRPPRLPRPRPRPDVGPRP | 0.434
72 | RRIRIRPPRLPRPRPRPMRDPRP | 0.189
73 | RRIRSRPPRLPRPRPRPDNIPRP | -0.347
74 | RRIRQRPPRLPRPRPRPCAIPRP | -0.0067
75 | RRIRMRPPRLPRPRPRPRGTPRP | 1.36

Row | Sequence | shrunken log2 fold change
76 | RRIRERPPRLPRPRPRPRSAPRP | 0.25
77 | RRIRHRPPRLPRPRPRPHQQPRP | 0.0121
78 | RRIRERPPRLPRPRPRPYTWPRP | -0.161
79 | RRIRARPPRLPRPRPRPNPFPRP | -0.0899
80 | RRIRPRPPRLPRPRPRPWNAPRP | -0.118
81 | RRIRERPPRLPRPRPRPHTTPRP | -0.205
82 | RRIRTRPPRLPRPRPRPAQEPRP | -0.00523
83 | RRIRLRPPRLPRPRPRPNYRPRP | -0.571
84 | RRIRCRPPRLPRPRPRPYWEPRP | -0.388
85 | RRIRCRPPRLPRPRPRPFLKPRP | -0.639
86 | RRIRTRPPRLPRPRPRPGGTPRP | -0.00579
87 | RRIRNRPPRLPRPRPRPKRRPRP | 0.00183
88 | RRIRVRPPRLPRPRPRPQVHPRP | -0.14
89 | RRIRMRPPRLPRPRPRPEFNPRP | 0.301
90 | RRIRSRPPRLPRPRPRPATCPRP | -0.154
91 | RRIRHRPPRLPRPRPRPFRLPRP | -0.322
92 | RRIRVRPPRLPRPRPRPATAPRP | 0.18
93 | RRIRARPPRLPRPRPRPQSIPRP | -0.0868
94 | RRIRMRPPRLPRPRPRPNLDPRP | 0.00884
95 | RRIRMRPPRLPRPRPRPNIRPRP | -0.169
96 | RRIRMRPPRLPRPRPRPQPGPRP | 0.778
97 | RRIRERPPRLPRPRPRPHVPPRP | -0.0791
98 | RRIRLRPPRLPRPRPRPCKQPRP | 0.0377
99 | RRIRTRPPRLPRPRPRPMMWPRP | 0.00735
100 | RRIRLRPPRLPRPRPRPAHLPRP | 0.343

Row | Sequence | shrunken log2 fold change
101 | RRIRARPPRLPRPRPRPNINPRP | -0.349
102 | RRIRCRPPRLPRPRPRPCDQPRP | 0.143
103 | RRIRLRPPRLPRPRPRPTGCPRP | 0.19
104 | RRIRCRPPRLPRPRPRPPRLPRP | 0.873
105 | RRIRCRPPRLPRPRPRPICNPRP | -0.579
106 | RRIRRRPPRLPRPRPRPDRFPRP | 0.394
107 | RRIRIRPPRLPRPRPRPIRRPRP | 0.00942
108 | RRIRKRPPRLPRPRPRPVADPRP | 0.14
109 | RRIRQRPPRLPRPRPRPHAIPRP | -0.562
110 | RRIRERPPRLPRPRPRPRWSPRP | -0.078
111 | RRIRVRPPRLPRPRPRPTYKPRP | -0.512
112 | RRIRHRPPRLPRPRPRPCASPRP | -0.028
113 | RRIRARPPRLPRPRPRPPIYPRP | 0.0905
114 | RRIRGRPPRLPRPRPRPPQKPRP | 1.35
115 | RRIRTRPPRLPRPRPRPKWSPRP | -0.227
116 | RRIRGRPPRLPRPRPRPKPDPRP | 1.11
117 | RRIRNRPPRLPRPRPRPVKTPRP | -0.0264
118 | RRIRYRPPRLPRPRPRPPYWPRP | -0.22
119 | RRIRNRPPRLPRPRPRPNLCPRP | -0.0109
120 | RRIRNRPPRLPRPRPRPRPLPRP | 0.402
121 | RRIRSRPPRLPRPRPRPMTLPRP | -0.103
122 | RRIRARPPRLPRPRPRPKEWPRP | 1.16
123 | RRIRPRPPRLPRPRPRPLINPRP | -0.298
124 | RRIRQRPPRLPRPRPRPRVKPRP | 0.103
125 | RRIRWRPPRLPRPRPRPCVQPRP | 2.8

Row | Sequence | shrunken log2 fold change
126 | RRIRRRPPRLPRPRPRPVGAPRP | 0.592
127 | RRIRFRPPRLPRPRPRPEYHPRP | -0.202
128 | RRIRIRPPRLPRPRPRPIAEPRP | -0.22
129 | RRIRKRPPRLPRPRPRPPMMPRP | 0.587
130 | RRIRHRPPRLPRPRPRPHNKPRP | -0.866
131 | RRIRTRPPRLPRPRPRPSAVPRP | -0.0697
132 | RRIRRRPPRLPRPRPRPDGDPRP | 0.485
133 | RRIRCRPPRLPRPRPRPNGNPRP | -0.288
134 | RRIRPRPPRLPRPRPRPMVHPRP | 0.137
135 | RRIRPRPPRLPRPRPRPLVPPRP | 0.125
136 | RRIRPRPPRLPRPRPRPEFIPRP | -0.117
137 | RRIRLRPPRLPRPRPRPIKAPRP | -0.0378
138 | RRIRPRPPRLPRPRPRPMKHPRP | 0.0348
139 | RRIRARPPRLPRPRPRPLRRPRP | 1.15
140 | RRIRPRPPRLPRPRPRPICVPRP | -0.215
141 | RRIRARPPRLPRPRPRPQGDPRP | 0.207
142 | RRIRSRPPRLPRPRPRPAALPRP | -0.0411
143 | RRIRQRPPRLPRPRPRPGRYPRP | -0.205
144 | RRIRWRPPRLPRPRPRPGVGPRP | 1.27
145 | RRIRRRPPRLPRPRPRPMTKPRP | 0.0629
146 | RRIRYRPPRLPRPRPRPLISPRP | -0.596
147 | RRIRRRPPRLPRPRPRPNLQPRP | -0.07
148 | RRIRVRPPRLPRPRPRPWKGPRP | 0.103
149 | RRIRFRPPRLPRPRPRPPNTPRP | -0.0857
150 | RRIRGRPPRLPRPRPRPKFHPRP | 0.199
